Here are results for twelve compounds from PMC5597622, “Engineered factor Xa variants retain procoagulant activity independent of direct factor Xa inhibitors” (Nature Communications, 2017).

One experiment concerns the target T1, pd-FXa (Homo sapiens, UniProt P00742).
T1 construct: the heavy chain derived from α or β FXa (α/β), the FXa light chain (LC); purchased Haematologic Technologies (Essex Junction, VT, USA); host or cells: human plasma
Format: biochemical.

Experiment [1] has as its target FXa-B (Homo sapiens, UniProt P00742). Nature of the experiment: Inhibition of FXa by TFPI and rTAP (residual amidolytic activity). It is filed as biochemical, human-snake chimera. To be noted: rTAP 0.5–100 nM, 1 nM FXa, 30 min.
The subject of experiment [2] is FXa-B. Described as above. It is filed as biochemical, human-snake chimera. To be noted: in the chimeric FXa variants.
For the next experiment, the target named is T2, wt-FXa (Homo sapiens, UniProt P00742).
T2 construct: made in house; host or cells: HEK293 (co-transfected with furin)
Described as above. Format: biochemical.

For experiment [3], the target named is T3, FXa-C (Homo sapiens, UniProt P00742, E317A/INS311KKFVPPQKA/K316L/N312Y/R313K/T315D/T318A).
T3 construct: made in house
It is filed as biochemical, human-snake chimera. The note with it: rTAP 0.5–100 nM, 1 nM FXa, 30 min.

Experiment [4] deals with FXa-A (Homo sapiens, UniProt P00742). It is filed as biochemical, human-snake chimera. The note with it: rTAP 0.5–100 nM, 1 nM FXa, 30 min.
Experiment [5] has as its target chimeric factor Xa variant C (human FXa with His91-Tyr99 replaced by the homologous region of P. textilis isoform FX) (human | Pseudonaja textilis). In words: inhibition of enzyme amidolytic activity (Morrison tight-binding fit).
Experiment [6] concerns the target recombinant wild-type human factor Xa (human). Described as above.
Experiment [7] addresses chimeric factor Xa variant B (human FXa with His91-Tyr99 replaced by the homologous region of Tropid (human | Tropidechus carinatus)). The experiment is described as above.
The target of experiment [8] is RVV-X activated P. textilis liver FX (Pseudonaja textilis, UniProt Q1L659). Nature of the experiment: biochemical.
Experiment [9] concerns the target RVV-X activated P. textilis isoform FX (Pseudonaja textilis, UniProt Q1L658). In words: biochemical.
The target of experiment [10] is purified recombinant P. textilis venom FXa (v-FXa) (Pseudonaja textilis, UniProt Q56VR3). In words: biochemical.
Experiment [11] has as its target RVV-X activated P. textilis venom FX (Pseudonaja textilis, UniProt Q56VR3). Nature of the experiment: biochemical.
Experiment [12] concerns T4, FXa-A.
T4 construct: His91-Tyr99 replaced with homologous region of P. textilis venom FX
It is filed as biochemical. To be noted: n = 2; read-out: S2765^a K m.

The target of experiment [13] is T5, pd-FXa (h-FXa) (Homo sapiens, UniProt P00742).
T5 construct: gene F10; plasma-derived human FXa (Haematologic Technologies); free or prothrombinase-assembled with FV-810 and PCPS, see series
Format: biochemical. The note with it: read-out: S2765^b K m; n = 2.

Experiment [14] has as its system T4, FXa-A. It is filed as biochemical. To be noted: n = 2; read-out: S2765^b K m.
For experiment [15], the system named is T6, FXa-C.
T6 construct: His91-Tyr99 replaced with homologous region of P. textilis isoform FX
It is filed as biochemical. The note with it: n = 2; read-out: S2765^b K m.

For experiment [16], the system named is T7, FXa-B.
T7 construct: His91-Tyr99 replaced with homologous region of T. carinatus venom FX
It is filed as biochemical. To be noted: n = 2; read-out: S2765^a K m.

Experiment [17] deals with T8, wt-FXa (WT) (Homo sapiens, UniProt P00742).
T8 construct: gene F10; free or prothrombinase-assembled with FV-810 and PCPS, see series
Format: biochemical. The note with it: read-out: S2765^b K m; n = 2.

Experiment [18] addresses T8, wt-FXa (WT). It is filed as biochemical. The note with it: read-out: S2765^a K m; n = 2.
Experiment [19] addresses T5, pd-FXa (h-FXa). Format: biochemical. The note with it: read-out: S2765^a K m; n = 2.
In experiment [20] the test system is T7, FXa-B. It is filed as biochemical. The note with it: n = 2; read-out: S2765^b K m.
The test system of experiment [21] is T6, FXa-C. Format: biochemical. The note with it: n = 2; read-out: S2765^a K m.
For experiment [22], the target named is constitutively active partial B-domainless recombinant form of human FV (FV-810) (human) (UniProt P12259). Nature of the experiment: kinetic assay of prothrombinase assembly (rate of prothrombin activation); apparent; steady-state initial velocities of prothrombin activation at 25 °C in assay buffer (20 mM Hepes, 0.15 M NaCl, pH 7.5, 5 mM CaCl2, 0.1% PEG8000) with PCPS (50 µM); how the cofactor was varied is not told.

The target in experiment [23] is T5, pd-FXa (h-FXa). Format: biochemical. The note with it: read-out: SpecXa Michaelis–Menten constant (K m).
Experiment [24] concerns T6, FXa-C. Format: biochemical. The note with it: read-out: SpecXa Michaelis–Menten constant (K m).
Experiment [25] deals with T8, wt-FXa (WT). Format: biochemical. To be noted: read-out: SpecXa Michaelis–Menten constant (K m).
In experiment [26] the test system is T7, FXa-B. Format: biochemical. To be noted: read-out: SpecXa Michaelis–Menten constant (K m).
For experiment [27], the system named is T4, FXa-A. Format: biochemical. To be noted: read-out: SpecXa Michaelis–Menten constant (K m).
In experiment [28] the target is plasma-derived human factor Xa (human). Nature of the experiment: inhibition of enzyme amidolytic activity (Morrison tight-binding fit).
The target of experiment [29] is chimeric factor Xa variant C (human FXa with His91-Tyr99 replaced by the homologous region of P. textilis isoform FX) (human | Pseudonaja textilis).
The target in experiment [30] is plasma-derived human factor Xa (human).
The target in experiment [31] is recombinant wild-type human factor Xa (human).
Experiment [32] concerns the target chimeric factor Xa variant B (human FXa with His91-Tyr99 replaced by the homologous region of Tropid (human | Tropidechus carinatus)).

Read-outs that look alike come from different tables or passages of the source. Non-standard residues stand in square brackets, D forms with d. Residues, ends and D or L forms follow the SMILES beside them. *: point of attachment. dChg = N[C@@H](C(=O)O)C1CCCCC1; pNA = O=[N+]([O-])c1ccc(N*)cc1; Cbz = O=C(OCc1ccccc1)*; Moc = COC(=O)*

As for “rTAP (YNRLCIKPRDWIDECDSNEGGERAYFRNGKGGCDSFWICPEDHTGADYYSSYRDCFNACI)”, the Ki in the experiment with pd-FXa amounted to 0.87 ± 0.18 nM; in the experiment with FXa-B [1], 7.92 ± 1.88 nM; with wt-FXa it was 0.7 ± 0.04 nM; in the experiment with FXa-C [3], 20.2 ± 6.56 nM; in the experiment with FXa-A [4], 26.3 ± 8.45 nM. In the experiment on FXa-B [2], the fold reduced binding result was “at least 11 fold”.

As to “tissue factor pathway inhibitor alpha (from UniProt P10646-1 29-304) (natural protein)”, the results for the Ki in [5], in experiment [6] and in [7] were 6.46 nM, 1.62 nM and 4.41 nM, respectively.

For `COc1ccc(-n2nc(C(N)=O)c3c2C(=O)N(c2ccc(N4CCCCC4=O)cc2)CC3)cc1` [Apixaban, 1-(4-methoxyphenyl)-7-oxo-6-(4-(2-oxopiperidin-1-yl)phenyl)-4,5,6,7-tetrahydro-1H -pyrazolo[3,4-c]pyridine-3-carboxamide], the IC50 in experiment [8] was 12 nM; in [9], at least 100000 nM; in experiment [10], at least 100000 nM; in experiment [11], at least 100000 nM.

Take `N=C(N)NCCC[C@H](NC(=O)CNC(=O)[C@@H](CCCNC(=N)N)NC(=O)OCc1ccccc1)C(=O)Nc1ccc([N+](=O)[O-])cc1` [S2765, N-α-benzyloxycarbonyl-D-Arg-Gly-Arg-pNA] (Cbz-[dR]-Gly-Arg-pNA): the Km turned out to be 39 ± 7 µM in the experiment on FXa-A [12]; 29 ± 8 µM at pd-FXa (h-FXa) [13]; 243 ± 50 µM with FXa-A [14]; 216 ± 28 µM in the experiment with FXa-C [15]; 49 ± 8 µM with FXa-B [16]; 26 ± 8 µM on wt-FXa (WT) [17]. Also, the Km at wt-FXa (WT) [18] was found to be 33 ± 7 µM; on pd-FXa (h-FXa) [19], 59 ± 19 µM; in the experiment on FXa-B [20] it was 249 ± 29 µM; with FXa-C [21], 60 ± 11 µM.

With plasma-derived human factor Xa (enzyme), the Kd in experiment [22] was 0.41 nM.

For “recombinant wild-type human factor Xa (enzyme)”, the Kd in experiment [22] is 1.44 nM.

Consider `COC(=O)N[C@@H](C(=O)NCC(=O)N[C@@H](CCCNC(=N)N)C(=O)Nc1ccc([N+](=O)[O-])cc1)C1CCCCC1` [SpecXa, methoxycarbonylcyclohexylglycylglycyl-Arg-pNA] (Moc-[dChg]-Gly-Arg-pNA), for which the Km turned out to be 138 µM at pd-FXa (h-FXa) [23]; 659 µM in the experiment on FXa-C [24]; 135 µM at wt-FXa (WT) [25]; 658 µM with FXa-B [26]; 645 µM in the experiment with FXa-A [27].

“recombinant tick saliva anticoagulant protein (from UniProt P17726 1-60) (natural protein)”: the Ki in [5] worked out at 20.2 nM; in [28], 0.87 nM; in [6] it was 0.7 nM; in [7], 7.92 nM.

“antithrombin (from UniProt P01008 33-464) (natural protein)”: the k 2, UFH: second-order rate constant of FXa inhibition by antithrombin with unfractionated heparin in experiment [29] turned out to be 6.73e+06 M⁻¹ s⁻¹; in experiment [30], 3.59e+06 M⁻¹ s⁻¹; in [31], 3.09e+06 M⁻¹ s⁻¹; in experiment [32], 1.02e+06 M⁻¹ s⁻¹. Besides, the k 2, uncatalyzed: second-order rate constant of FXa inhibition by antithrombin stood at 950 M⁻¹ s⁻¹ in experiment [29], 1550 M⁻¹ s⁻¹ in experiment [30], 4070 M⁻¹ s⁻¹ in experiment [31] and 410 M⁻¹ s⁻¹ in experiment [32].

Turning to “chimeric factor Xa variant C (human FXa with His91-Tyr99 replaced by the homologous region of P. textilis isoform FX) (enzyme)”, the Kd in [22] amounted to 0.57 nM.

On to “chimeric factor Xa variant B (human FXa with His91-Tyr99 replaced by the homologous region of Tropid (enzyme)”, for which, in [22], the Kd was determined as 0.85 nM.

In the case of `O=C(NC[C@H]1CN(c2ccc(N3CCOCC3=O)cc2)C(=O)O1)c1ccc(Cl)s1` [Rivaroxaban, 5-chloro-N-({(5S)-2-oxo-3-[4-(3-oxomorpholin-4-yl)phenyl]-1,3-oxazolidin-5-yl}methyl)thiophene-2-carboxamide], the IC50 in experiment [10] is at least 30000 nM.
